Assay [1] has as its target Enterococcus faecalis FabN dehydratase/isomerase, hexahistidine-tagged (Enterococcus faecalis (strain FA2-2)). Briefly: SEC. For orientation: In gel filtration, larger molecules generally elute earlier.
For assay [2], the target named is Enterococcus faecalis FabO 3-ketoacyl-ACP synthase I, hexahistidine-tagged (Enterococcus faecalis (strain FA2-2)). The assay is described as follows: SEC.

In general, stoichiometry N refers to a count of units in the complex or per binding partner.

On to “Enterococcus faecalis FabN dehydratase/isomerase, hexahistidine-tagged (enzyme)”, for which the stoichiometry N in assay [1] amounted to 6.

In turn, “Enterococcus faecalis FabO 3-ketoacyl-ACP synthase I, hexahistidine-tagged (enzyme)” gave a stoichiometry N in assay [2] of 2.

The record behind these values is PMC9671860.
